Measured values: publication PMC4174437

Target: Ec Hfq WT (Escherichia coli, UniProt P0A6X3 1-102)
Test: fluorescence polarization

Chain of Ec Hfq WT (P0A6X3 whole entry): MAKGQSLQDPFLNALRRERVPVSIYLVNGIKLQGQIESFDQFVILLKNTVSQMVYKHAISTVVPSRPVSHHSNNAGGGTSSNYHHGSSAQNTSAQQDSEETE

B1: U6 (5'-fluorescein) (ssRNA)
RNA: UUUUUU
**Q.** Which Kd does the source give for B1 here?
**A.** 3.3 nM
